Columns and labels:
[1] = molecular target: human BCL-2 (in FL5.12-Bcl-2 cells) (human, UniProt P10415); test: In Vitro and In Vivo BCL-2 Binding (summary: GST pull-down and anti-BID immunoprecipitation with anti-BCL-2 blot)
[2] = molecular target: BAX (in FL5.12-Bcl-2 cells) (murine, UniProt Q07813); test: In Vitro and In Vivo BAX Binding (summary: GST pull-down and anti-BID immunoprecipitation with anti-BAX blot)

binding result [1] | binding result [2] | Binder
no binding |  | BIDmIII-1 (M97A,D98A) (other) MDSEVSNGSGLGAKHITDLLVFGFLQSSGCTRQELEVLGRELPVQAYWEADLEDELQTDGSQASRSFNQGRIEPDSESQEEIIHNIARHLAQIGDEAAHNIQPTLVRQLAAQFMNGSLSEEDKRNCLAKALDEVKTAFPRDMENDKAMLIMTMLLAKKVASHAPSLLRDVFHTTVNFINQNLFSYVRNLVRNEMD
 | no binding | BIDmIII-3 (G94A) (other) MDSEVSNGSGLGAKHITDLLVFGFLQSSGCTRQELEVLGRELPVQAYWEADLEDELQTDGSQASRSFNQGRIEPDSESQEEIIHNIARHLAQIADEMDHNIQPTLVRQLAAQFMNGSLSEEDKRNCLAKALDEVKTAFPRDMENDKAMLIMTMLLAKKVASHAPSLLRDVFHTTVNFINQNLFSYVRNLVRNEMD
